Like-named read-outs stand apart in the source and are kept apart here.
T1: Human-TNFR2-His (human, UniProt P20333 23-257)
T1 construct: Bought protein; also called human TNFR2 protein; TNFR2 protein; not shown: His tag
T1 sequence (looked up): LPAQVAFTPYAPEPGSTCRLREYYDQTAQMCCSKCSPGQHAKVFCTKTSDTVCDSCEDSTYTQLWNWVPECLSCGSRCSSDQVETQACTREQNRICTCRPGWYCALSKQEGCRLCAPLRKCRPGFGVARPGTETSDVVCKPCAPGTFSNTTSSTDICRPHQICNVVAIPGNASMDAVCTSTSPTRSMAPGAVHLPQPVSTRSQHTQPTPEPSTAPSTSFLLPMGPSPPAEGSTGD

T2: Human TNFR2 mFc (human, UniProt P20333 23-257)
T2 construct: Bought protein; not shown: mFc
T2 sequence (looked up): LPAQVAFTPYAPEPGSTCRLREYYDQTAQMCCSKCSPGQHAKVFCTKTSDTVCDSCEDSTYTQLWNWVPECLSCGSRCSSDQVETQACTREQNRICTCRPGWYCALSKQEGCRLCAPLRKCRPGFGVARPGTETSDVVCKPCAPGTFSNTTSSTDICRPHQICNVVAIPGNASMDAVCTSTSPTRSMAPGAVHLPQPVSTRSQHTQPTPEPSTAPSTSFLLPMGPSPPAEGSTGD


Assays:
Human-TNFR2-His [1] = target: T1, Human-TNFR2-His; assay: ELISA: Human-TNFR2-His coated (0.1 ug/mL), antibody titrated, goat anti-human IgG Fc detection (Example 2)
Experimental: (§1) Human-TNFR2-His (manufacturer: SINO, CAT: 10417-H08H, LOT: LC15NO0412) was diluted to 0.1 μg/mL with a coating solution (1×PBS, pH7.4), and coated in 96-well ELISA plate at 100 µL/well overnight at 4° C. The coating solution was poured off. Each well was washed with 1×PBST at 300 μL, washed 4 times with a plate washer, and patted dry on a flat paper. It was blocked with 3% skim milk powder at 300 μL/well, and incubated at 37° C. for 1 h. The blocking solution was poured off, washed 4 times with a plate washer, and patted dry on a flat paper. Negative control and positive control were set up. […] The positive control and antibody were diluted to 10 μg/mL with 3% skim milk powder as the starting concentration, and then diluted by 3-fold gradient (11 gradients in total), and a blank well was set up and only the diluent was added. It was incubated at 37° C. for 1 h at 100 μL/well. The liquid in the well was discarded, washed 4 times with a plate washer, and patted dry on a flat paper. Goat anti-human IgG Fc was diluted with 3% skim milk powder at 1:10000, and incubated at 37° C. for 1 h at 100 μL/well. It was washed 6 times with a plate washer, and patted dry on a flat paper. TMB color developing solution was added at 100 μL/well, and wrapped with aluminum foil. Color development was performed at 37° C. in the dark for 8 min. Termination solution 1M HCl was added to terminate the color development reaction at 100 μL/well. Readings were taken at 450 nm on an ELISA reader.

Human 4-1BB His [2] = target: T3, Human 4-1BB His (human, UniProt Q07011 24-186); assay: ELISA: Human 4-1BB His coated (0.2 ug/mL), antibody titrated, goat anti-human IgG Fc detection (Example 3)
T3 construct: Bought protein; lots 198-2146F1-W6 and 2407c-214FF1-YC; also called human 4-1BB protein; 4-1BB protein; not shown: His tag
T3 sequence (Q07011 24-186 limits assumed): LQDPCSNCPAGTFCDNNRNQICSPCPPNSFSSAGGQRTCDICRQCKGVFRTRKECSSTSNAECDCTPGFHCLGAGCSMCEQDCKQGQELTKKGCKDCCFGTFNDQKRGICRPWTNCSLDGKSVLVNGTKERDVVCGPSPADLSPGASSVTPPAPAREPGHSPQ
Experimental: (§2) Human 4-1BB His (manufacturer: Acro, CAT: 41B-H5258, LOT: 198-2146F1-W6) was diluted to 0.2 μg/mL with a coating solution (1×PBS, pH7.4), and coated in 96-well ELISA plate at 100 μL/well overnight at 4° C. The coating solution was poured off. Each well was washed with 1×PBST at 300 μL, washed 4 times with a plate washer, and patted dry on a flat paper. It was blocked with 3% skim milk powder at 300 μL/well, and incubated at 37° C. for 1 h. The blocking solution was poured off, washed 4 times with a plate washer, and patted dry on a flat paper. Negative control and positive control were set up. […] The variable region of the antibody sequence of the positive control consists of SEQ ID NO: 15 and SEQ ID NO: 19, with the addition of the constant region of human IgG1 (SEQ ID NO: 46 and SEQ ID NO: 47). The positive control and antibody were diluted to 10 μg/mL with 3% skim milk powder as the starting concentration, and then diluted by 3-fold gradient (11 gradients in total), and a blank well was set up and only the diluent was added. It was incubated at 37° C. for 1 h at 100 μL/well. The liquid in the well was discarded, washed 4 times with a plate washer, and patted dry on a flat paper. Goat anti-human IgG Fc was diluted with 3% skim milk powder at 1:20000, and incubated at 37° C. for 1 h at 100 μL/well. It was washed 6 times with a plate washer, and patted dry on a flat paper. TMB color developing solution was added at 100 μL/well, and wrapped with aluminum foil. Color development was performed at 37° C. in the dark for 8 min. Termination solution 1M HCl was added to terminate the color development reaction at 100 μL/well. Readings were taken at 450 nm on an ELISA reader.

Human-TNFR2-His [3] = target: T1, Human-TNFR2-His; assay: ELISA: Human-TNFR2-His coated (0.1 ug/mL), antibody titrated, goat anti-human IgG Fc detection (Example 2); remark: listed apart in the source
Experimental: as §1

Human 4-1BB Fc = target: T4, Human 4-1BB Fc (human, UniProt Q07011 24-186); assay: bridging ELISA: Human 4-1BB Fc coated (0.3 ug/mL), antibody titrated, then Human-TNFR2-His (0.3 ug/mL), HRP anti-His detection (Example 4)
T4 construct: same catalogue and lot number as Human 4-1BB His; not shown: Fc
T4 sequence (Q07011 24-186 limits assumed): as above
Experimental: Human 4-1BB Fc (manufacturer: Acro, CAT: 41B-H5258, LOT: 198-2146F1-W6) was diluted to 0.3 μg/mL with a coating solution (1×PBS, pH7.4) and coated into a 96-well ELISA plate at 100 µL/well at 4° C. overnight. The coating solution was poured off. Each well was washed with 1×PBST at 300 μL, washed 4 times with a plate washer, and patted dry on a flat sheet. It was blocked with 3% skim milk powder at 300 μL/well, and incubated at 37° C. for 1 h. The blocking solution was poured off, washed 4 times with a plate washer, and patted dry on a flat sheet. […] Starting at 50 nM, which was used as the initial concentration for 3-fold dilution, a total of 10 gradients were diluted, and a blank well was set up and only the diluent was added. It was incubated at 37° C. for 1 h at 100 μL/well. The liquid in the well was discarded, washed 4 times with a plate washer, and patted dry on a flat paper. Human-TNFR2-His (manufacturer: Sino, CAT: 10417-H08H, LOT: LC15NO0412) was diluted to 0.3 μg/mL, 100 μL was added to each well, and incubated at room temperature for 1 h. The plate was washed 3 times with PBST, and then the HRP-labeled his antibody was diluted with sample diluent at 1:5000, 100 μ L was added to each well, and incubated at room temperature for 1 h. It was washed 6 times with a plate washer, and patted dry on a flat paper. TMB color developing solution was added at 100 μL/well, and wrapped with aluminum foil. Color development was performed at 37° C. in the dark for 8 min. Termination solution 1M HCl was added to terminate the color development reaction at 100 μL/well. Readings were taken at 450 nm on an ELISA reader.

Human 4-1BB His [4] = target: T3, Human 4-1BB His; assay: ELISA: Human 4-1BB His coated (0.2 ug/mL), antibody titrated, goat anti-human IgG Fc detection (Example 3); remark: listed apart in the source
Experimental: as §2

Human TNFR2 mFc = target: T2, Human TNFR2 mFc; assay: bridging ELISA: Human TNFR2 mFc coated (0.3 ug/mL), antibody titrated, then Human 4-1BB His (0.3 ug/mL), HRP anti-His detection (Example 5)
Experimental: Human TNFR2 mFc (manufacturer: Kaixia, CAT: TN-HM3R2, LOT: 031202) was diluted to 0.3 μg/mL with a coating solution (1×PBS, pH7.4) and coated into a 96-well ELISA plate at 100 μL/well at 4° C. overnight. The coating solution was poured off. Each well was washed with 1×PBST at 300 μL, washed 4 times with a plate washer, and patted dry on a flat paper. It was blocked with 3% skim milk powder at 300 μL/well, and incubated at 37° C. for 1 h. The blocking solution was poured off, washed 4 times with a plate washer, and patted dry on a flat paper. […] Starting at 50 nM, which was used as the initial concentration for 3-fold dilution, a total of 10 gradients were diluted, and a blank well was set up and only the diluent was added. It was incubated at 37° C. for 1 h at 100 µL/well. The liquid in the well was discarded, washed 4 times with a plate washer, and patted dry on a flat paper. Human 4-1BB His (manufacturer: Acro, CAT: 41B-H5258, LOT: 198-2146F1-W6) was diluted to 0.3 μg/mL, 100 μL was added to each well, and incubated at room temperature for 1 h. The plate was washed 3 times with PBST, and then the HRP-labeled his antibody was diluted with sample diluent at 1:5000, 100 μ L was added to each well, and incubated at room temperature for 1 h. It was washed 6 times with a plate washer, and patted dry on a flat paper. TMB color developing solution was added at 100 μL/well, and wrapped with aluminum foil. Color development was performed at 37° C. in the dark for 8 min. Termination solution 1M HCl was added to terminate the color development reaction at 100 μL/well. Readings were taken at 450 nm on an ELISA reader.

Binder	EC50 (read off the curve) (Human-TNFR2-His [1]) [pM]	EC50 (read off the curve) (Human 4-1BB His [2]) [pM]	EC50 (read off the curve) (Human-TNFR2-His [3]) [pM]	EC50 (read off the curve) (Human 4-1BB Fc) [pM]	EC50 (read off the curve) (Human 4-1BB His [4]) [pM]	EC50 (read off the curve) (Human TNFR2 mFc) [pM]
Antibody J2 (bispecific antibody, human IgG4 S228P, kappa, IgG4 subtype; same order as J1) light: DIQMTQSPSSLSASLGDRVTISCSASQGISNYLNWYQQKPDGTVKLLIYYTSTLHSGVPSRFSGSGSGTDYTLTISSLQPEDIATYYCQQYSKLPWTFGGGTKLEIKRTVAAPSVFIFPPSDEQLKSGTASVVCLLNNFYPREAKVQWKVDNALQSGNSQESVTEQDSKDSTYSLSSTLTLSKADYEKHKVYACEVTHQGLSSPVTKSFNRGEC heavy: not shown	~200	~200				
Antibody M2 (bispecific antibody, human IgG4 S228P, kappa, IgG4 subtype; same order as M1) light: DIQMTQSPSSLSASLGDRVTISCSASQGISNYLNWYQQKPDGTVKLLIYYTSTLHSGVPSRFSGSGSGTDYTLTISSLQPEDIATYYCQQYSKLPWTFGGGTKLEIKRTVAAPSVFIFPPSDEQLKSGTASVVCLLNNFYPREAKVQWKVDNALQSGNSQESVTEQDSKDSTYSLSSTLTLSKADYEKHKVYACEVTHQGLSSPVTKSFNRGEC heavy: not shown	~100					
Antibody C (bispecific antibody, human IgG1, kappa, IgG1 subtype; full-length 4-1BB antibody with TNFR2 scFv at the N-terminus of the heavy chains) light: DIQMTQSPSSLSASLGDRVTISCSASQGISNYLNWYQQKPDGTVKLLIYYTSTLHSGVPSRFSGSGSGTDYTLTISSLQPEDIATYYCQQYSKLPWTFGGGTKLEIKRTVAAPSVFIFPPSDEQLKSGTASVVCLLNNFYPREAKVQWKVDNALQSGNSQESVTEQDSKDSTYSLSSTLTLSKADYEKHKVYACEVTHQGLSSPVTKSFNRGEC heavy: not shown			~60	~500	~100	~200
